Laboratory results: the supplement of paper PMC9170038

Each sequence was assayed on K4 kissing-loop RNA reporter (assay: apparent KD of K4 kissing-loop reporter; higher = weaker reporter binding). Details: Eterna round: R107; input ligand: none.
Method: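 RNA-MaP round R107: designed RNA switches with theophylline, tryptophan, arginine or FMN aptamers are transcribed on-chip within common flanks. They are titrated with a labelled K4 kissing-loop RNA reporter in RNA-MaP buffer (100 mM Tris pH 7.5, 80 mM KCl, 4 mM MgCl2), without ligand or with the indicated ligand. Median apparent KD per design.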
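Also: bound reporter read as fluorescence of individual clusters on recovered sequencing chips by microscopy, with normalized cluster intensities fitted with a binding model.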

Compared with “UGGAGUUGACGAAAAGUCAACUCCUGAGAUACCAGUGACGAAGGUCACCCUUGGCAGCUCACUGCUAGUGAUGUUGGUAGUUAAA [whbob_SS_Theo_A_w50]”, “GCUAUGGUAGGAAGGAGCGCUACUUUAUUUUUACGAGUGAUGUUCGGUAGUAGAGUGUUAAAGCAGGUAGGUCGCCUACUAUAGC [Arginine B K4 18]” is 5.7-fold lower in “apparent KD of K4 kissing-loop reporter” value: 797 nM for the first, 140 nM for the second.

Compared with “UUCUACGAGUGAUGUUCGUAGUGUAAUAGUUAGGAUAUCGUUUUUUCGAGAAGGAACUUCGAAGUGAUACGAAAGUAUCGCUUCG [FMN A 11]”, “CGCGCCCAGCCGGAUACCAGUGACCCGCUGGGAACCGCGGGCCCAGAGUGAUGUUCGGGACACCCUUGGCAGCCGCCUGGGCGGU [#2 Same State - Theophylline B Attempt #10 (HarryS)]” is 10-fold higher in “apparent KD of K4 kissing-loop reporter” value: 126 nM for the first, 1270 nM for the second.

“GGUAUCUAUACAGAUACCAGUCGUACAGCUGCAUUACAGGUUAGUGAUGUUAACCUGUACGACCCUUGGCAGCUGUAUAGUAGUA [Theo B Ex t2b]” and “UUUAUAAAGUCGGCCGCCACUGGAUUUAUAUUUGUUUCGUCUGGAUCAAAGUGAUGUUUUGAGUCCAGGACCGGGACAUUUGUUA [whbob_Ex_Tryp_B_w37]” are within 1.5-fold of each other in “apparent KD of K4 kissing-loop reporter” value: 91.8 nM for the first, 74.6 nM for the second.

First: AUAGGAGUGAUGUUCCUUAGUCCCUCCGAUACCAGUAUGGAAACAUACCCUUGGCAGCGGUGGACCGCAGAUUAGGAAACUAGUC [Theophylline A K4 4]
Second: GGCGGCCGCGCGCAAGCGCGGCCGGCCGAUACCAGCGCGCCGGCGCGCCCUUGGCAGCGGCGCCGAGUGAUGUUCGGCCUGCCGG [#2 Same State - Theophylline A Attempt #9 (HarryS)]
The “apparent KD of K4 kissing-loop reporter” value of the first is 2.1-fold lower: 216 nM for the first, 449 nM for the second.

“CGCAGUGAUGUUGCUAUUAUUCUUGGUUAACGAGGACCGGUACGGCCGCCACUCGAUUUCUAUCUAGUCCAGUGUUUUUUUGAGU [whbob_EX_Tryp_A_t7]” and “AAGCCCAGUGAUGUUGGAAGCGCGUACGAUACCAGCGAAUCGGAACGCCCUUGGCAGCGUACAGAGUUGGCGGAAGAUAGGACAG [theeternabot_sameState_KL_Theo_A_14]” are within 1.5-fold of each other in “apparent KD of K4 kissing-loop reporter” value: 470 nM for the first, 643 nM for the second.

“UCAGUUCACGGGCGCCGCAAACCGCAGGAUACCAGUCACAUCGCUGACCCUUGGCAGCCUAUGGACUAGUGAUGUUAGUCCAGGA [theeternabot_sameState_KL_Theo_A_37]” and “UGAUAGGACAGAAGGAGCGGAAGUGAUGUUUCCAAUGGAAUUAAGGUGUCAAAGACACCCUUCCAGGUAGGUCGCUGUCCUAUCU [ArgBX 18 #Palindromic #SwitchBubble #StaticStem]” are within 1.5-fold of each other in “apparent KD of K4 kissing-loop reporter” value: 128 nM for the first, 155 nM for the second.

“AUGGGUCCACGAAGGAGCGCCGUGGAGUGAUGUUCCGGUUAGAUCCAGUGAUGUUGGGCCCGGCAGGUAGGUCGCGUGGACUCAU [Exclusion Arginine B GF 23]” and “UCUAUAGUUAGAGGAUAUUGAAUUAGAGUGAUGUUCUAUAGAAGACCAGUGAUGUUGGAUAGUAUACAAGAAGGCUGAUCUAUAG [Same State FMN B GF 1]” are within 1.5-fold of each other in “apparent KD of K4 kissing-loop reporter” value: 586 nM for the first, 451 nM for the second.

Going from “AAUGUUAGCAAAGGAUAUCUGAUGAGUGAUGUUUACGGACCGUUUGCGUUUCAUUACACGCAGCUCAGAGAAGGUUGGUGUGCAG [theeternabot_exclusion_KL_FMN_B_49]” to “UGUCAUUGGUCUGAUACCAGAAGAAAUCUGGAGUGAUGUUCCGAGUACGACAAAAGUCGCUUCCCUUGGCAGCAGACCGAUGACU [TheoBS 22 #SwitchBubble 13 #StaticStem]”, the “apparent KD of K4 kissing-loop reporter” value falls from 1180 nM to 198 nM (6-fold).

Compared with “GGAUAGGACAGAGGAUAUCUCUGAGGCAAGAAAACUUGUCUCUAAAGGGAUGACUCAGUGAUGUUGAGAGAAGGCUGUCCUAUCG [FmnBX 11 - #SwitchBubble #StaticStem]”, “UUGGGCGAGGUAACGUGGAUAUCUCGUCGCAAGGAUAUCUGGAAACAGAGAAGGUGCUACAUUACCGGCAGUGAUGUUGCUGACC” is 3.6-fold higher in “apparent KD of K4 kissing-loop reporter” value: 154 nM for the first, 555 nM for the second.

“UACUCUCCUCCUGAUACCAGAUAAAUAUUAAUACAUUAGUGAUGUUAAUGCCCAAACCCGAUCCCUUGGCAGCAGAAUAUGCAGG [theeternabot_sameState_KL_Theo_B_25]” and “AUUUUAGAGUGAUGUUCUAUUUGAUCAGAUACCAGACAAUUAUAAGUCCCUUGGCAGCUGUAGCCGAUAAAUUUAAUUAAUUUAA [JR_ExcTheophyA_Sub012]” are within 1.5-fold of each other in “apparent KD of K4 kissing-loop reporter” value: 202 nM for the first, 158 nM for the second.

With “UAGUCCUCUUCUUAUUUAUUCCCUAAUGCUAAGGAUAUCCGAAUUCGGAGAAGGUAGUGAUGUUACUUGAAGGGACAUAUUUAUU [AK6 Exc FMN A]” the “apparent KD of K4 kissing-loop reporter” value was 684 nM.

Same assay, conditions: Eterna round: R107; input ligand: theophylline 20 uM

First: AGUGAUGUGGGAAGGAGCGCUACAAGACUUCAGUGAUGUUGAAGUGAUGUUUUAGUGUUGUAGCAGGUAGGUCGCCUAGAUGUUA [KL-XARG-B10]
Second: GUAGUCGUACCUUCAGUGAUGUUGAAGGAUACCAGAUGUUACCACAUCCCUUGGCAGCCUUGGGAUAACAGUGAGUUGGAAUAUG [Soonusa]
The “apparent KD of K4 kissing-loop reporter” value of the first is 3-fold lower: 45.7 nM for the first, 138 nM for the second.

Compared with “GGAUCCACCAGUGAUGUUGGAGAAAACUUCAAGGAUAUGACGAAAGUCAGAAGGUGGUAGACUGGACAAAGUCCGGUAGGAUCCA [FmnA10 U29+A78]”, “GCGCGUCAUGUCAGCGGUGACUAUGUCGAUACCAGCGCCGCAAGGCGCCCUUGGCAGCGACGCGCUGGAGUGAUGUUCCAGCGUG [#2 Exclusion - Theophylline A Attempt #10 (HarryS)]” is 4-fold lower in “apparent KD of K4 kissing-loop reporter” value: 570 nM for the first, 144 nM for the second.

Compared with “GGGCGCGGCGCGGCCGCCACUGGGCCUGGGCGCUCGCUGAGUGAUGUUCGCCGGCGGCUGGGUCGUAGGACCGGGUGCCGGCUGG [BDazzled - #3 SS Tryptophan B]”, “AAGUUGAACUGAAGGAGCGAGAAAUAGAAUGUAAGAAUAUAUGCUAGUGAUGUUAGAAAUUCUCAGGUAGGUCGCAGUAAGAUUU [V1.1]” is 1.6-fold lower in “apparent KD of K4 kissing-loop reporter” value: 902 nM for the first, 558 nM for the second.

“ACAGUCCCGCAUGGUGCGAACGAGAGAUGGCGAGGACCGGUACGGCCGCCACUCGAACAAGUGAUGUUUGAUAUCAUUUUUCUAC [theeternabot_sameState_KL_Trp_A_10]” and “UAAGAGGACCACUGCGAGAGUCCUCGAAUACGAGGACCGGUACGGCCGCCACUCGAUAACUUGCAGUGAUGUUGCAAGUAAGAAU [BrourdMod 3 - Jieux - Same State Tryptophan A]” are within 1.5-fold of each other in “apparent KD of K4 kissing-loop reporter” value: 90.7 nM for the first, 102 nM for the second.

“CUGUUGUAGACUGAUACCAGUCUCACAGCAGAUGUGUGGGACUUAGUGAUGUUAAGUACCGACCCUUGGCAGCAGUCUACGACCU [Theo B SS t6]” and “GUAGUGAUGUUACGAGUAUUCCAUCGUAGAGAGGAUAUGGUUCCUUCCAGAAGGUUCUGAGAAUUAAAAUUUGAUAAAAUGAGGG [Exclusion FMN A GF 2]” are within 1.5-fold of each other in “apparent KD of K4 kissing-loop reporter” value: 452 nM for the first, 392 nM for the second.

Compared with “UUGUUUGGUUGAGAGGUUGGGCGAGAUGAUACCAGUAUAGUAUUGUACCCUUGGCAGCAUAUGAGAGAUAUAGUGAUGUUGUAUG [SSTheophA.X]”, “GGCGGGUGCCCGUAAGGGUGCCCGGCCGAUACCAGCGCGACGGCGCGCCCUUGGCAGCGGCGCCGAGUGAUGUUCGGCCUGCCGU [#2 Same State - Theophylline A Attempt #24 (HarryS)]” is 6.3-fold lower in “apparent KD of K4 kissing-loop reporter” value: 532 nM for the first, 84.5 nM for the second.

Compared with “GAGAAUCUCACGGCCGCCACUCACCUGUUAAUUGACAUCGACGGCCUCGACCAGUGAUGUUGUGUGAGGACCGGGUGUCUCGUGU [theeternabot_exclusion_KL_Trp_B_32]”, “AUGGGCACGUCGGCCGCCACUACACGGUCCCGCGAGGGCCAGUGAUGUUGGUCGACGUGCCGUUGUAGGACCGGGACGUGGCUGU [Teatondi]” is 5.5-fold lower in “apparent KD of K4 kissing-loop reporter” value: 562 nM for the first, 103 nM for the second.

First: AGUGAUGUUUUUUUUAAGAGUGAUGUUUUUCGAGGACCGGUACGGCCGCCACUCGAGUGAUGAGUGAGGUGUGGUGAUGUUUAGU [#09 K4 Tryptophan A Exclusion]
Second: UAAAUAAUAAAACGAGUGAUGUUCGACGAUACCAGCCUCGAUAGAGGCCCUUGGCAGCGUAUGUGAUCACUAAGCCAAGGAAUAA [#02 K4 Theophylline A Exclusion]
The “apparent KD of K4 kissing-loop reporter” value of the first is 1.6-fold higher: 316 nM for the first, 196 nM for the second.

Going from “GGUGCGCUGUUAGUGAUGUUAACCGAGGAUACCAGUUAGGCGUCUAACCCUUGGCAGCCUCUCUGGUCUCAUCAACGUUGUGCUA [theeternabot_exclusion_KL_Theo_A_37]” to “UUACCAAGUGAUGUUUGGAAAUAUCCUAGGCAGGAUAUGCGGAAACGCAGAAGGGCCACCUGAUAGUGAAGGAAACUUCGCUAUC [Ex FMN A 1]”, the “apparent KD of K4 kissing-loop reporter” value falls from 641 nM to 130 nM (4.9-fold).

“GUAGUGAUGUUACGAAUAUUCCAUCAUAGAGAGGAUAUUGUUCCUUCGAGAAGGUUCUGAGAAUUAAAAUUUAAUAAAAUGAAGG [Exclusion FMN A GF 1]” and “AUUAAUAACAGAGGAUAUGCAUUUUUAUUAUUUUUAAAUAUUAAAUGCAGUGAUGUUGCAUAUUAAGCAGAAGGCUGAUUUAUUU [JR_SSFMNB_Sub012]” are within 1.5-fold of each other in “apparent KD of K4 kissing-loop reporter” value: 357 nM for the first, 279 nM for the second.

Compared with “GUGCGGCUAGUGAUGUUGGUUGCGUGGGAAGGAGCGCAGAAACAUGCAGGUAGGUCGCCCACAUCUCGGAUAAGAGAUUAAUUCC [Arorso]”, “UGGAGUUGACGAAAAGUCAACUCCUGAGAUACCAGUGACGAAGGUCACCCUUGGCAGCUCACUGCUAGUGAUGUUGGUAGUUAAA [whbob_SS_Theo_A_w50]” is 3-fold higher in “apparent KD of K4 kissing-loop reporter” value: 262 nM for the first, 773 nM for the second.

“GCUAUGGUAGGAAGGAGCGCUACUUUAUUUUUACGAGUGAUGUUCGGUAGUAGAGUGUUAAAGCAGGUAGGUCGCCUACUAUAGC [Arginine B K4 18]” and “UUCUACGAGUGAUGUUCGUAGUGUAAUAGUUAGGAUAUCGUUUUUUCGAGAAGGAACUUCGAAGUGAUACGAAAGUAUCGCUUCG [FMN A 11]” are within 1.5-fold of each other in “apparent KD of K4 kissing-loop reporter” value: 172 nM for the first, 132 nM for the second.

Compared with “CGCGCCCAGCCGGAUACCAGUGACCCGCUGGGAACCGCGGGCCCAGAGUGAUGUUCGGGACACCCUUGGCAGCCGCCUGGGCGGU [#2 Same State - Theophylline B Attempt #10 (HarryS)]”, “GGUAUCUAUACAGAUACCAGUCGUACAGCUGCAUUACAGGUUAGUGAUGUUAACCUGUACGACCCUUGGCAGCUGUAUAGUAGUA [Theo B Ex t2b]” is 5.8-fold lower in “apparent KD of K4 kissing-loop reporter” value: 576 nM for the first, 100 nM for the second.

Compared with “UUUAUAAAGUCGGCCGCCACUGGAUUUAUAUUUGUUUCGUCUGGAUCAAAGUGAUGUUUUGAGUCCAGGACCGGGACAUUUGUUA [whbob_Ex_Tryp_B_w37]”, “AUAGGAGUGAUGUUCCUUAGUCCCUCCGAUACCAGUAUGGAAACAUACCCUUGGCAGCGGUGGACCGCAGAUUAGGAAACUAGUC [Theophylline A K4 4]” is 3.3-fold higher in “apparent KD of K4 kissing-loop reporter” value: 69.1 nM for the first, 231 nM for the second.

“GGCGGCCGCGCGCAAGCGCGGCCGGCCGAUACCAGCGCGCCGGCGCGCCCUUGGCAGCGGCGCCGAGUGAUGUUCGGCCUGCCGG [#2 Same State - Theophylline A Attempt #9 (HarryS)]” and “CGCAGUGAUGUUGCUAUUAUUCUUGGUUAACGAGGACCGGUACGGCCGCCACUCGAUUUCUAUCUAGUCCAGUGUUUUUUUGAGU [whbob_EX_Tryp_A_t7]” are within 1.5-fold of each other in “apparent KD of K4 kissing-loop reporter” value: 374 nM for the first, 451 nM for the second.

With “AAGCCCAGUGAUGUUGGAAGCGCGUACGAUACCAGCGAAUCGGAACGCCCUUGGCAGCGUACAGAGUUGGCGGAAGAUAGGACAG [theeternabot_sameState_KL_Theo_A_14]” the “apparent KD of K4 kissing-loop reporter” value was 637 nM.
